Results from publication PMC5156392, “Structure and Mechanism of Staphylococcus aureus TarS, the Wall Teichoic Acid β-glycosyltransferase Involved in Methicillin Resistance” (PLoS Pathogens, 2016).

Experiments:
[1] = tested on: CC(=O)N[C@H]1[C@@H](OP(=O)(O)OP(=O)(O)OC[C@H]2O[C@@H](n3ccc(=O)[nH]c3=O)[C@H](O)[C@@H]2O)O[C@H](CO)[C@@H](O)[C@@H]1O; test: purified protein; conditions: donor hydrolysis reaction without polyRboP acceptor; varied UDP-GlcNAc
[2] = target: the molecule itself; test: crystal structure
[3] = target: the molecule itself; test: SEC-MALS; Superdex 200 HR 10/30, 30 mM Hepes pH 7.3, 500 mM NaCl, 5% glycerol; full-length TarS run at 25 μM

Molecule | Km [1] [µM] | also measured
TarS1-349 (Staphylococcus aureus subsp. aureus Mu50) | 21 ± 2 | 
full-length TarS (TarS 1-573; wild-type) (Staphylococcus aureus subsp. aureus Mu50) | 45 ± 3 | 
TarS_(217-573) (domain or fragment, source: limited thermolysin proteolysis of purified full-length TarS (from E. coli Rosetta (DE3)), crystallised directly) VSPEDFYEVMRLIAVEILNADLEEAHKDQILAEFLNRHFSFSRTNGFSLKVKLEEQPQWINALGDFIQAVPERVDALVMSKLRPLLHYARAKDIDNYRTVEESYRQGQYYRFDIVDGKLNIQFNEGEPYFEGIDIAKPKVKMTAFKFDNHKIVTELTLNEFMIGEGHYDVRLKLHSRNKKHTMYVPLSVNANKQYRFNIMLEDIKAYLPKEKIWDVFLEVQIGTEVFEVRVGNQRNKYAYTAETSALIHLNNDFYRLTPYFTKDFNNISLYFTAITLTDSISMKLKGKNKIILTGLDRGYVFEEGMASVVLKDDMIMGMLSQTSENEVEILLSKDIKKRDFKNIVKLNTAHMTYSLK |  | binding result [2]: binds
Staphylococcus aureus TarS, full-length protein (1-573) (enzyme, also called full-length TarS; wild-type TarS; source: E. coli Rosetta (DE3), pET41b, purified (Heparin HP, Superdex 200)) MMKFSVIVPTYNSEKYITELLNSLAKQDFPKTEFEVVVVDDCSTDQTLQIVEKYRNKLNLKVSQLETNSGGPGKPRNVALKQAEGEFVLFVDSDDYINKETLKDAAAFIDEHHSDVLLIKMKGVNGRGVPQSMFKETAPEVTLLNSRIIYTLSPTKIYRTALLKDNDIYFPEELKSAEDQLFTMKAYLNANRISVLSDKAYYYATKREGEHMSSAYVSPEDFYEVMRLIAVEILNADLEEAHKDQILAEFLNRHFSFSRTNGFSLKVKLEEQPQWINALGDFIQAVPERVDALVMSKLRPLLHYARAKDIDNYRTVEESYRQGQYYRFDIVDGKLNIQFNEGEPYFEGIDIAKPKVKMTAFKFDNHKIVTELTLNEFMIGEGHYDVRLKLHSRNKKHTMYVPLSVNANKQYRFNIMLEDIKAYLPKEKIWDVFLEVQIGTEVFEVRVGNQRNKYAYTAETSALIHLNNDFYRLTPYFTKDFNNISLYFTAITLTDSISMKLKGKNKIILTGLDRGYVFEEGMASVVLKDDMIMGMLSQTSENEVEILLSKDIKKRDFKNIVKLNTAHMTYSLK |  | stoichiometry N [3]: 3
